From US5981483

Legend:
[1] = target: purified human TGF-β1 (human) (UniProt P01137)
[2] = target: purified human TGF-β1 (human) (UniProt P01137); remark: listed apart in the source
TGF-β2 = assay: SPR (BIAcore); analyte over immobilized cytokine
BMP-4 = assay: SPR (BIAcore); analyte over immobilized cytokine

- IC50, neutralization of TGF-β1 activity in the Mv1Lu growth inhibition assay [1]: 220 nM
- percent neutralization of the antiproliferative activity of TGF-β1 (3H-thymidine incorporation, Mv1Lu cells) [2]: 150%
- Kd (TGF-β2): 3800 nM
- koff (TGF-β2): 0.005 s⁻¹
- kon (TGF-β2): 1300 M⁻¹ s⁻¹
- Kd (BMP-4): 20 nM
- koff (BMP-4): 0.0011 s⁻¹
- kon (BMP-4): 54000 M⁻¹ s⁻¹
Substance: bovine thyroglobulin (from UniProt P01267)
